The results in this text go back to publication PMC9299187.

Assay [1] concerns the target Chimera‐Short (human DHFR‐TYMS bifunctional chimeric enzyme with 10 amino acid linker) (human). Kind of assay: SEC; Superdex 200 10/300, 0.1 M K-phosphate pH 7.5, calibrated with protein standards; IMAC fractions of the Chimera constructs.
For assay [2], the target named is Chimera‐Long (human DHFR‐TYMS bifunctional chimeric enzyme with 20 amino acid linker) (human). The description is as above.
Assay [3] has the same target. Kind of assay: SPR; Chimera-Long amine-coupled on a COOH2 chip (735 RU on Ch1, 175 RU on Ch3), SHMT1 as analyte 2.66-85 uM, 25 °C, 10 mM Hepes pH 7.4, 150 mM NaCl, 0.005% Tween-20; 1 : 1 bimolecular interaction model.
Assay [4] has the same target. Kind of assay: BLI; Chimera held by mouse anti-DHFR on a Protein-A biosensor, SHMT1 as analyte 1-30 uM, kinetic titration series, kinetic buffer, 25 °C; two-exponential fit, heterogeneous binding model with two binding events.
Assay [5] shares this target. Kind of assay: SPR; Chimera-Long amine-coupled on a COOH2 chip (735 RU on Ch1, 175 RU on Ch3), SHMT1 as analyte 2.66-85 uM, 25 °C, 10 mM Hepes pH 7.4, 150 mM NaCl, 0.005% Tween-20; 1 : 1 bimolecular interaction model. This is another data set of the same source.

Read-outs that look alike come from different tables or passages of the source.

In the case of “Chimera‐Short (human DHFR‐TYMS bifunctional chimeric enzyme with 10 amino acid linker)”, the stoichiometry N in assay [1] came out at 2.

In assay [2], “Chimera‐Long (human DHFR‐TYMS bifunctional chimeric enzyme with 20 amino acid linker)” returned a stoichiometry N of 2.

B1: serine hydroxymethyltransferase (SHMT1), purified recombinant, tetrameric (enzyme)
chain: DADLWSSHDKMLAQPLKDSDVEVYNIIKKESNRQRVGLELIASENFASRAVLEALGSCLNNKYSEGYPGQRYYGGTEFIDELETLCQKRALQAYKLDPQCWGVNVQPYSGSPANFAVYTALVEPHGRIMGLDLPDGGHLTHGFMTDKKKISATSIFFESMPYKVNPDTGYINYDQLEENARLFHPKLIIAGTSCYSRNLEYARLRKIADENGAYLMADMAHISGLVAAGVVPSPFEHCHVVTTTTHKTLRGCRAGMIFYRKGVKSVDPKTGKEILYNLESLINSAVFPGLQGGPHNHAIAGVAVALKQAMTLEFKVYQHQVVANCRALSEALTELGYKIVTGGSDNHLILVDLRSKGTDGGRAEKVLEACSIACNKNTCPGDRSALRPSGLRLGTPALTSRGLLEKDFQKVAHFIHRGIELTLQIQSDTGVRATLKEFKERLAGDKYQAAVQALREEVESFASLFPLPGL
In assay [3], B1 gave a dissociation constant Kd of 2.5 µM, a koff of 0.0025 s⁻¹ and an association rate constant (kon) of 470 M⁻¹ s⁻¹. In assay [4], this molecule had a KD, binding 1 of 16.4 µM; a KD, binding 2 of 13.5 µM; a koff, binding 1 of 0.2 s⁻¹; a koff, binding 2 of 0.02 s⁻¹. In addition, in assay [4], the kon, binding 1 was found to be 14000 M⁻¹ s⁻¹ and the kon, binding 2 turned out to be 1600 M⁻¹ s⁻¹. The same molecule yielded a Kd in assay [5] of 2.9 µM.
